From publication PMC11619453 come the findings set out here.

The target in the experiment is ORF59HA full-length (KSHV DNA polymerase processivity factor ORF59 with an in-frame HA tag, from iSLK.BAC16-ORF59HA) (Kaposi's sarcoma-associated herpesvirus (KSHV, human herpesvirus 8), BAC16).
ORF59HA full-length (KSHV DNA polymerase processivity factor ORF59 with an in-frame HA tag, from iSLK.BAC16-ORF59HA) (Kaposi's sarcoma-associated herpesvirus (KSHV, human herpesvirus 8), BAC16), sequence (F5HID2 whole entry): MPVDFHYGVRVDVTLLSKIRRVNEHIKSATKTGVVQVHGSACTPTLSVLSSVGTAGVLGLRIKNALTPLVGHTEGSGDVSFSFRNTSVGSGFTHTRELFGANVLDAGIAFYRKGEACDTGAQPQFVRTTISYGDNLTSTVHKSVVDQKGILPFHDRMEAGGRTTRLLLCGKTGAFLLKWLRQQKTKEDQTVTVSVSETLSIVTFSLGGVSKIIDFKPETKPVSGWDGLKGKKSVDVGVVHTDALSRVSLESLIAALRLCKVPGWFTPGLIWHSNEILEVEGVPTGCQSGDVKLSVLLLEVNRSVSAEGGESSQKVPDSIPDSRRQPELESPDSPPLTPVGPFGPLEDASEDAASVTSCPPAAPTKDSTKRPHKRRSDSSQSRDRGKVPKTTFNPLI

B1: ORF57 (KSHV mRNA transcript accumulation protein, MTA) (natural protein)
chain: MVQAMIDMDIMKGILEDSVSSSEFDESRDDETDAPTLEDEQLSEPAEPPADERIRGTQSAQGIPPPLGRIPKKSQGRSQLRSEIQFCSPLSRPRSPSPVNRYGKKIKFGTAGQNTRPPPEKRPRRRPRDRLQYGRTTRGGQCRAAPKRATRRPQVNCQRQDDDVRQGVSDAVKKLRLPASMIIDGESPRFDDSIIPRHHGACFNVFIPAPPSHVPEVFTDRDITALIRAGGKDDELINKKISAKKIDHLHRQMLSFVTSRHNQAYWVSCRRETAAAGGLQTLGAFVEEQMTWAQTVVRHGGWFDEKDIDIILDTAIFVCNAFVTRFRLLHLSCVFDKQSELALIKQVAYLVAMGNRLVEACNLLGEVKLNFRGGLLLAFVLTIPGMQSRRSISARGQELFRTLLEYYRPGDVMGLLNVIVMEHHSLCRNSECAAATRAAMGSAKFNKGLFFYPLS
With B1, the viral DNA accumulation (qPCR of ORF26, 72 hpi) in 59HA-WT iSLK cells transfected with 30–100DsRed, against control cells was determined as 5 fold.
